Assay [1] deals with mAb1 WT-AAA (asymmetrical human IgG1, one Fc heavy chain H310A, H433A, Y436A) (human). The assay is described as follows: SPR; Biacore T200, C1 chip, 25 °C, HBS-EP+; (antibody) Fc variants captured at low density (about 8-10 RU) via anti-human Fab-kappa nanobody or anti-PGLALA F(ab')2; TRIM21-CC-PS injected 180 s in two-fold dilutions from 100, 400, 500 or 1000 nM; global 1:1 Langmuir fit; avidity (apparent) mode for symmetrical, affinity mode for asymmetrical Fc variants. For orientation: SPR reads the build-up and loss of mass on a sensor chip optically.

The target of assay [2] is mAb1 YTE-AAA (asymmetrical human IgG1, one Fc heavy chain YTE, the other AAA) (human). The description is as above.
In assay [3] the target is mAb1 HH-AAA (asymmetrical human IgG1, one Fc heavy chain HH, the other AAA) (human). The description is as above.
Assay [4] has as its target anti-AAV2 capsid antibody A20 WT (bivalent, human IgG1 Fc WT) (human). Described as above.
Assay [5] addresses mAb1 YTE (human IgG1, M252Y, S254T, T256E) (human). Described as above.
For assay [6], the target named is mAb1 HH (human IgG1, T307H, N434H) (human). The assay is described as above.
For assay [7], the target named is TRIM21 PRYSPRY domain (human) (UniProt P19474). The assay is described as follows: SPR; Biacore T200, C1 chip, 25 °C, HBS-EP+; biotinylated PRYSPRY domain captured via monovalent streptavidin at low density (about 3 RU); (antibody) Fc constructs injected in five two-fold dilutions from 200 nM; global monophasic fit, affinity mode.
TRIM21 PRYSPRY domain (human), sequence (P19474 277-475): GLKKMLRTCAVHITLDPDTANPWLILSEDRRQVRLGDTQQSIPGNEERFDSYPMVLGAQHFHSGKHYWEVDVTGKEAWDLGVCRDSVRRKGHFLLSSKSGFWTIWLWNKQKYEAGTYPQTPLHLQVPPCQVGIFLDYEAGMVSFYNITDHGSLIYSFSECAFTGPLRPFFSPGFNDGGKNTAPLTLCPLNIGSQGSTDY
In a further assay the target is mAb1 HH (human). As to the kind of experiment: SPR; antibody Fc variants captured via anti-human Fab-kappa ligand at low density (approx. 8-10 RU); TRIM21-CC-PS injected, two-fold series from 100 nM, 180 s association, 600 s dissociation; 25°C, HBS-EP+; 1:1 fit; apparent (avidity) constants.
The target of a further assay is mAb1 YTE (human). The description is as above.
The target of assay [8] is anti-AAV2 capsid antibody A20 WT (human). The assay is described as follows: SPR; A20 antibody variants and TRIM21-CC-PS; orientation not told in the text (Supplementary Figure S8); apparent (avidity) constant.
anti-AAV2 capsid antibody A20 WT (human), sequence (heavy, as listed by the source, chain 1 of 2): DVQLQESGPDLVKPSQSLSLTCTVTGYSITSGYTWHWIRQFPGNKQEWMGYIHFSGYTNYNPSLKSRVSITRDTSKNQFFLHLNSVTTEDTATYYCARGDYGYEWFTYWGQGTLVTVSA
anti-AAV2 capsid antibody A20 WT (human), sequence (light, as listed by the source, chain 2 of 2): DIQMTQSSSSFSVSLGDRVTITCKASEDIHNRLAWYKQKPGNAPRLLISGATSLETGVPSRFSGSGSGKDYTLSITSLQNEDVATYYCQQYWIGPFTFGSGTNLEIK
A further assay addresses mAb1 WT-AAA (human). The assay is described as follows: mass photometry; TRIM21-CC-PS incubated 10 min with antibody Fc variants at different molar ratios, low nM; PBS pH 7.4, room temperature.

TRIM21-coiled-coil-PRYSPRY (TRIM21-CC-PS), sequence (P19474 128-475): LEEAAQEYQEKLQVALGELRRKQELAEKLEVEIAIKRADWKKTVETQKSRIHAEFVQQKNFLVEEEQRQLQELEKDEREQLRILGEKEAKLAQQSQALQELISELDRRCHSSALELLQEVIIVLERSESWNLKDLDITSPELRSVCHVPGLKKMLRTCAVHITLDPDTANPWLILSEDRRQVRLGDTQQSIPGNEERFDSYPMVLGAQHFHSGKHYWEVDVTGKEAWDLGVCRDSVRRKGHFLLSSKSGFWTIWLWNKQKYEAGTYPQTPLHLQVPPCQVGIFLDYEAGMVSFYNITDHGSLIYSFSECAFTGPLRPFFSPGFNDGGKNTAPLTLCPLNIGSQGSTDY
TRIM21-coiled-coil-PRYSPRY, sequence (P19474 128-475): as above
anti-AAV2 capsid antibody A20 WT (bivalent, human IgG1 Fc WT) (human), sequence (heavy, as listed by the source, chain 1 of 2): as the sequence (heavy, as listed by the source, chain 1 of 2) above
anti-AAV2 capsid antibody A20 WT (bivalent, human IgG1 Fc WT) (human), sequence (light, as listed by the source, chain 2 of 2): as the sequence (light, as listed by the source, chain 2 of 2) above

For the substance “TRIM21-coiled-coil-PRYSPRY (from UniProt P19474-1 128-475) (domain or fragment)”, the Kd in assay [1] is 116 nM; in assay [2], 220 nM; in assay [3], 474 nM; in [5], 1.47 nM; in assay [6] it was 1.37 nM. The koff in assay [1] was found to be 0.129 s⁻¹; in assay [2] it was 0.167 s⁻¹; in assay [3], 0.437 s⁻¹; in assay [4] it was 0.000983 s⁻¹; in assay [5], 0.00127 s⁻¹; in assay [6], 0.00651 s⁻¹. Further, the on-rate constant (kon) turned out to be 1.1e+06 M⁻¹ s⁻¹ in [1]; 758000 M⁻¹ s⁻¹ in assay [2]; 921000 M⁻¹ s⁻¹ in assay [3]; 1.44e+06 M⁻¹ s⁻¹ in assay [4]; 865000 M⁻¹ s⁻¹ in assay [5]; 4.74e+06 M⁻¹ s⁻¹ in assay [6].

In assay [7], “Fc WT (Fc-only variant, human IgG1 core hinge-CH2-CH3, wild type) (domain or fragment)” showed a Kd of 25.9 nM, a koff of 0.132 s⁻¹ and a kon of 5.09e+06 M⁻¹ s⁻¹.

“TRIM21-coiled-coil-PRYSPRY (TRIM21-CC-PS) (from UniProt P19474-1 128-475) (domain or fragment)”: in the assay with mAb1 HH (human), the avidity enhancement (K (D,AFFINITY)/K (D,AVIDITY)) came to 72 fold, the fold faster kinetic rates against YTE was 5 fold and the fold weaker against the WT avidity worked out at 2 fold. Moreover, in the assay with mAb1 YTE (human), the avidity enhancement (K (D,AFFINITY)/K (D,AVIDITY)) came out at 50 fold and the fold weaker against the WT avidity is 2 fold. The Kd in assay [8] came to 0.7 nM. Moreover, in the assay with mAb1 WT-AAA (human), the percent complexed was 2%.

Consider Briakinumab (antibody), for which, in assay [7], the Kd was 16.6 nM, the off-rate (koff) was 0.102 s⁻¹ and the kon worked out at 6.14e+06 M⁻¹ s⁻¹.

In [7], Ustekinumab (antibody) showed a Kd of 22.7 nM, a koff of 0.0884 s⁻¹ and a kon of 3.89e+06 M⁻¹ s⁻¹.

As a reminder, the koff is the rate constant with which the complex falls apart. In general, kon refers to a measure of how fast the partners come together.

For the origin of these results see publication PMC11210195.
